IntAct's records for PubMed 7758105

B1: Tumor necrosis factor receptor superfamily member 1A (Homo sapiens), P19438 (parent)
chain: MGLSTVPDLLLPLVLLELLVGIYPSGVIGLVPHLGDREKRDSVCPQGKYIHPQNNSICCTKCHKGTYLYNDCPGPGQDTDCRECESGSFTASENHLRHCLSCSKCRKEMGQVEISSCTVDRDTVCGCRKNQYRHYWSENLFQCFNCSLCLNGTVHLSCQEKQNTVCTCHAGFFLRENECVSCSNCKKSLECTKLCLPQIENVKGTEDSGTTVLLPLVIFFGLCLLSLLFIGLMYRYQRWKSKLYSIVCGKSTPEKEGELEGTTTKPLAPNPSFSPTPGFTPTLGFSPVPSSTFTSSSTYTPGDCPNFAAPRREVAPPYQGADPILATALASDPIPNPLQKWEDSAHKPQSLDTDDPATLYAVVENVPPLRWKEFVRRLGLSDHEIDRLELQNGRCLREAQYSMLATWRRRTPRREATLELLGRVLRDMDLLGCLEDIEEALCGPAALPPAPSLLR
partner: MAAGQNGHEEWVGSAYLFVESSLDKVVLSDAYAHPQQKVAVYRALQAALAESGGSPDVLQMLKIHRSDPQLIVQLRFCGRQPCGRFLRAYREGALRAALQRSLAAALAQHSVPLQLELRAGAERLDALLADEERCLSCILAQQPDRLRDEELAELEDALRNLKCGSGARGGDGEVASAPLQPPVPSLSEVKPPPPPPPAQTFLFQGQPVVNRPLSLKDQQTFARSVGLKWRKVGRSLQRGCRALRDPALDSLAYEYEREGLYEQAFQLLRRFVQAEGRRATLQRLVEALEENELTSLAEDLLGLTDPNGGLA

Variants of: B1
Conditions: with tradd_human TRADD

Variant | effect of a mutation on the interaction
K372A;F374A;R376A | decreasing interaction
